Data taken from patent publication US20210196796A1 (SYNTHEKINE, published 2021).

T1: orthogonal hCD122 receptor (hoRb), hCD122 with H133D and Y134F (human, UniProt P14784 27-550)
T1 sequence: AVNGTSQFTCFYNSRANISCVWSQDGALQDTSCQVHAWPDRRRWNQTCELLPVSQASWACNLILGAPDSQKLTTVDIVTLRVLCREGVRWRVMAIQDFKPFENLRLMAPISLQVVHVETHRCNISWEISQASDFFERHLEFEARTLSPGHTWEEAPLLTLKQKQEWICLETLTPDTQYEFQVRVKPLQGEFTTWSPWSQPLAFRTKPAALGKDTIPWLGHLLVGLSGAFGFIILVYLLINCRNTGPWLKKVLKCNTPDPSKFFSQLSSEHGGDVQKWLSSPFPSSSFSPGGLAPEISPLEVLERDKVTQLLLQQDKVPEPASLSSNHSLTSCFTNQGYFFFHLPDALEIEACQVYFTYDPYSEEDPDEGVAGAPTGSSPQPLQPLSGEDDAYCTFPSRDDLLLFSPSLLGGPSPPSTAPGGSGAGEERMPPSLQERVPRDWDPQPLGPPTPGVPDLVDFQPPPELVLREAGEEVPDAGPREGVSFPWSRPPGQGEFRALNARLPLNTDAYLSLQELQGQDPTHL


Assays:
[1] = target: T1, orthogonal hCD122 receptor (hoRb), …; assay: cell-based or functional assay
[2] = target: T1, orthogonal hCD122 receptor (hoRb), …; assay: cell-based or functional assay; remark: listed apart in the source
For Relative Proliferation Fold Change 3F8 1:10 in this document: reference of the scale not given here.
For Relative Proliferation Fold Change 3F8 1:2 in this document: reference of the scale not given here.
For Relative Proliferation Fold Change 3F8 1:50 in this document: reference of the scale not given here.
For Relative Proliferation Fold Change NKL 1:10 in this document: reference of the scale not given here.
For Relative Proliferation Fold Change NKL 1:2 in this document: reference of the scale not given here.
For Relative Proliferation Fold Change NKL 1:50 in this document: reference of the scale not given here.

Binder | NKL Ortho Proliferation Signal 1:2 [1] | NKL Ortho Proliferation Signal 1:10 [1] | NKL Ortho Proliferation Signal 1:50 [1] | Relative Proliferation Fold Change NKL 1:2 [1] [fold] | Relative Proliferation Fold Change NKL 1:10 [1] [fold] | Relative Proliferation Fold Change NKL 1:50 [1] [fold] | 3F8 Ortho Proliferation Signal 1:2 [2] [cts/min] | 3F8 Ortho Proliferation Signal 1:10 [2] [cts/min] | 3F8 Ortho Proliferation Signal 1:50 [2] [cts/min] | Relative Proliferation Fold Change 3F8 1:2 [2] [fold] | Relative Proliferation Fold Change 3F8 1:10 [2] [fold] | Relative Proliferation Fold Change 3F8 1:50 [2] [fold]
L80V, SQVLKA (ligand) APTSSSTKKTQLQLSQLLVLLKAILNGINNYKNPKLTRMLTFKFYMPKKATELKHLQCLEEELKPLEEVLNLAQSKNFHVRPRDLISNINVIVLELKGSETTFMCEYADETATIVEFLNRWITFCQSIISTLT | 62500 | 51600 | 24300 | 4.26 | 3.13 | 1.58 | 34900 | 34800 | 21200 | 30.6 | 38 | 32.7
R81D, SQVLKA (ligand) APTSSSTKKTQLQLSQLLVLLKAILNGINNYKNPKLTRMLTFKFYMPKKATELKHLQCLEEELKPLEEVLNLAQSKNFHLDPRDLISNINVIVLELKGSETTFMCEYADETATIVEFLNRWITFCQSIISTLT | 71800 | 73800 | 44400 | 3.64 | 4.35 | 3.07 | 39300 | 30000 | 10400 | 7.51 | 13.6 | 11.5
L85V, SQVLKA (ligand) APTSSSTKKTQLQLSQLLVLLKAILNGINNYKNPKLTRMLTFKFYMPKKATELKHLQCLEEELKPLEEVLNLAQSKNFHLRPRDVISNINVIVLELKGSETTFMCEYADETATIVEFLNRWITFCQSIISTLT | 56300 | 49600 | 24200 | 3.94 | 3.34 | 1.71 | 44300 | 41300 | 18900 | 39.9 | 44.6 | 14.3
I86V, SQVLKA (ligand) APTSSSTKKTQLQLSQLLVLLKAILNGINNYKNPKLTRMLTFKFYMPKKATELKHLQCLEEELKPLEEVLNLAQSKNFHLRPRDLVSNINVIVLELKGSETTFMCEYADETATIVEFLNRWITFCQSIISTLT | 39900 | 38000 | 18400 | 3.82 | 2.67 | 1.42 | 34000 | 32600 | 15100 | 0.8 | 3.76 | 3.66
R81I, SQVLKA (ligand) APTSSSTKKTQLQLSQLLVLLKAILNGINNYKNPKLTRMLTFKFYMPKKATELKHLQCLEEELKPLEEVLNLAQSKNFHLIPRDLISNINVIVLELKGSETTFMCEYADETATIVEFLNRWITFCQSIISTLT | 52800 | 58000 | 27300 | 3.84 | 3.85 | 1.92 | 40000 | 46000 | 20900 | 55.9 | 48.8 | 49.4
R81Y, SQVLKA (ligand) APTSSSTKKTQLQLSQLLVLLKAILNGINNYKNPKLTRMLTFKFYMPKKATELKHLQCLEEELKPLEEVLNLAQSKNFHLYPRDLISNINVIVLELKGSETTFMCEYADETATIVEFLNRWITFCQSIISTLT | 59800 | 77900 | 49500 | 3.64 | 4.64 | 3.43 | 35800 | 46000 | 16500 | 4.14 | 16.6 | 17.6
N88E, SQVLKA (ligand) APTSSSTKKTQLQLSQLLVLLKAILNGINNYKNPKLTRMLTFKFYMPKKATELKHLQCLEEELKPLEEVLNLAQSKNFHLRPRDLISEINVIVLELKGSETTFMCEYADETATIVEFLNRWITFCQSIISTLT | 6410 | 7090 | 6480 | 0.49 | 0.53 | 0.51 | 326 | 588 | 850 | 1 | 1.2 | 1.44
ΔR81, SQVLKA (ligand) APTSSSTKKTQLQLSQLLVLLKAILNGINNYKNPKLTRMLTFKFYMPKKATELKHLQCLEEELKPLEEVLNLAQSKNFHLPRDLISNINVIVLELKGSETTFMCEYADETATIVEFLNRWITFCQSIISTLT | 62400 | 68800 | 31900 | 4.84 | 4.09 | 2.1 | 28600 | 32200 | 22000 | 46.4 | 39 | 24
Δ88N, SQVLKA (ligand) APTSSSTKKTQLQLSQLLVLLKAILNGINNYKNPKLTRMLTFKFYMPKKATELKHLQCLEEELKPLEEVLNLAQSKNFHLRPRDLISINVIVLELKGSETTFMCEYADETATIVEFLNRWITFCQSIISTLT | 4610 | 7470 | 6690 | 0.42 | 0.59 | 0.58 | 486 | 580 | 666 | 2.59 | 0.79 | 1.33
ΔL14, SQVLKA (ligand) APTSSSTKKTQLQSQLLVLLKAILNGINNYKNPKLTRMLTFKFYMPKKATELKHLQCLEEELKPLEEVLNLAQSKNFHLRPRDLISNINVIVLELKGSETTFMCEYADETATIVEFLNRWITFCQSIISTLT | 31800 | 23500 | 12200 | 2.38 | 1.6 | 0.86 | 30300 | 24500 | 8130 | 125 | 26.5 | 13.2
